# B1: 72Q: model huntingtin-GFP fusion polypeptide with 72 glutamine residues; SEQ ID NO: 13 (protein)
# chain: MATLEKLMKAFESLKSFQQQQQQQQQQQQQQQQQQQQQQQQQQQQQQQQQQQQQQQQQQQQQQQQQQQQQQQQQQQQQQQQQQQQQQQQ
# B2: α-Nt-HD-C4 sFv clone 1: subclone 1 of α-Nt-HD-C4 sFv expressed in bacteria and purified on Ni-NTA (protein)
# scFv: QVQLQESGGGLVQPGGSLRLSCAASGFTFSSYSMSWVRQAPGKGLEWVAVISYDGSNKYYADSVKGRFTISRDNSKNTLYLQMNSLRAEDTAVYYCARDRYFDLWGRGTLVTVSSGGGGSGGGGSGGGGSQSALTQPASVSGSPGQSITISCTGTSSDIGAYNYVSWYQQYPGKAPKLLIYDVSNRPSGISNRFSGSKSGDTASLTISGLQAEDEADYYCSSFANSGPLFGGGTKVTVL
# modifications: left off: small tags and cut ends
# notes: subclone 1 of α-Nt-HD-C4 sFv expressed in bacteria and purified on Ni-NTA
# B3: α-Nt-HD-C4 sFv clone 2: subclone 2 of α-Nt-HD-C4 sFv expressed in bacteria and purified on Ni-NTA (protein)
# scFv: QVQLQESGGGLVQPGGSLRLSCAASGFTFSSYSMSWVRQAPGKGLEWVAVISYDGSNKYYADSVKGRFTISRDNSKNTLYLQMNSLRAEDTAVYYCARDRYFDLWGRGTLVTVSSGGGGSGGGGSGGGGSQSALTQPASVSGSPGQSITISCTGTSSDIGAYNYVSWYQQYPGKAPKLLIYDVSNRPSGISNRFSGSKSGDTASLTISGLQAEDEADYYCSSFANSGPLFGGGTKVTVL
# modifications: left off: small tags and cut ends
# notes: subclone 2 of α-Nt-HD-C4 sFv expressed in bacteria and purified on Ni-NTA
# B4: α-Nt-HD-C4 sFv-NLS: huntingtin-specific C4 sFv intrabody fused to HA tag and SV40 nuclear localization signal (protein)
# scFv: QVQLQESGGGLVQPGGSLRLSCAASGFTFSSYSMSWVRQAPGKGLEWVAVISYDGSNKYYADSVKGRFTISRDNSKNTLYLQMNSLRAEDTAVYYCARDRYFDLWGRGTLVTVSSGGGGSGGGGSGGGGSQSALTQPASVSGSPGQSITISCTGTSSDIGAYNYVSWYQQYPGKAPKLLIYDVSNRPSGISNRFSGSKSGDTASLTISGLQAEDEADYYCSSFANSGPLFGGGTKVTVLYPYDVPDYATPPLLLRLV
# B5: 104Q: model huntingtin-GFP fusion polypeptide with 104 glutamine residues; SEQ ID NO: 14 (protein)
# chain: MATLEKLMKAFESLKSFQQQQQQQQQQQQQQQQQQQQQQQQQQQQQQQQQQQQQQQQQQQQQQQQQQQQQQQQQQQQQQQQQQQQQQQQQQQQQQQQQQQQQQQQQQQQQQQQQQQQQQQQ
# B6: 47Q: model huntingtin-GFP fusion polypeptide with 47 glutamine residues; SEQ ID NO: 12 (protein)
# chain: MATLEKLMKAFESLKSFQQQQQQQQQQQQQQQQQQQQQQQQQQQQQQQQQQQQQQQQQQQQQQQ
# What was measured:
# cerebellar slices = experiment: Aggregation of model huntingtin-GFP polypeptides in biolistically transfected cerebellar slices; format: cell-based, mice (P12 Balb); settings: examined after 24 h
# Protocol: Organotypic slice cultures are made from P12-P14 cerebellum, cerebral cortex, or striatum, using published methods with minor modifications (1)(14). The brain is dissected from a mouse and placed in a beaker of high magnesium (1.8 mM CaCl2 and 2.4 mM MgCl2) HEPES-buffered Hanks' saline (HBHS) at 4° C. The brain is then blocked and mounted next to a 2% agarose block on a 1-cm^2 piece of Plexiglas (0.3 cm thick) with SuperGlue®. Dental wax mounts the plastic onto the slicing-chamber tissue-holder. After being mounted, the tissue is placed in the slicing chamber of the vibratome. The bath of the vibratome contains cooled high magnesium HBHS at 4° C. Temperature is maintained by a peltier thermoelectric refrigeration system attached to the slicing chamber (FHC, Brunswick, Me.). Three or 400 μm thick sections were sliced from the tissues of interest. As each new slice was made it was placed into growth medium at 4° C. until the collection of slices was complete. Slices from one preparation were then placed in an enclosed filter unit, and incubated at 37° C. for 1 hour in high magnesium artificial cerebral spinal fluid ([…], 0.33 mM KCl, 0.12 mM NaH2PO4, 2.5 mM NaHCO3, 1 mM dextrose, 2.4 mM MgCl2, 1.8 mM CaCl2; all items from Sigma®, St. Louis, Mo.). Solutions were constantly gassed with 95% O2 and 5% CO2. […]
# GST-HD-25Q, GST-HD-42Q = experiment: Affinity purification of sFv with GST-fusion antigens (glutathione-Sepharose, SDS-PAGE, immunoblot); format: binding; settings: 3 μg sFv with 4 μg antigen, 1 hr room temperature; Coomassie and immunoblot
# Protocol: About 3 ug of N-HD-C4 sFv was mixed with 4 ug of either GST-DRPLA-Q35 or GST-HD-Q25 or GST-HD-Q42 in PBS (200 μl final volume) and rocked for 1 h at RT. Twenty microliters of glutathione Sepharose 4B beads (50% slurry, pre-washed with PBS) was added and incubated for another 30 min at RT to capture the sFv/GST fusion protein complexes. The beads were harvested by centrifugation at 12,000×g for 10 sec and washed thrice with 1 ml PBS. The complexes were eluted with 10 μl of 50 mM Tris pH 8.0 containing 10 mM reduced glutathione for 10 min at RT. Tubes were then centrifuged at 12,000×g for 1 min and the supernatants containing the soluble complexes were transferred to new tubes, mixed with an equal volume of 2× SDS-sample buffer and heated at 95° C. before being loaded on SDS-PAGE.
# About 3 μg of each clone were incubated in solution for 1 hour at room temperature with 4 ug of either GST-DRPLA-Q35, GST-HD-Q25 or GST-HD-Q42. Then, a 10 μl bed volume of glutathione-Sepharose 4B (Pharmacia) was added to each tube to precipitate the GST-fusion protein/sFv complexes. After 30 min incubation, tubes were centrifuged and the pellets washed 3 times with 1 ml PBS. The complexes were eluted from glutathione-Sepharose beads by addition of 10 mM reduced glutathione to the pellets.
# After centrifugation, supernatants containing the eluted complexes were transferred to new tubes and mixed with an equal volume of 2× SDS-loading buffer. The samples were boiled and the proteins separated on a 12% SDS-PAGE. Protein bands were visualized by Coomassie blue staining, and/or transferred to nitrocellulose membranes in order to detect the sFv molecules by immunoblot.
# The binding specificities of the selected sFv clones were tested by affinity binding to a full range of antigens, as follows: (a) using sample numbers that correspond to the experimental results in FIGS. 9 and 10, about 3 μg of α-Nt-HD-C4 sFv clone 1 (lanes 2-4) or α-Nt-HD-C4 sFv clone 2 (lanes 5-7) were mixed with 4 μg of the following antigens and incubated in solution for 1 hr at room temperature (lanes 2 and 5) GST-DRPLA-35Q, (lanes 3 and 6) GST-HD-25Q, (4 and 7) GST-HD-42Q; (b) a 10 μl bed volume of glutathione-Sepharose 4B (Pharmacia) was added to each tube to bind all GST-containing protein complexes; the beads were washed with 10 mM glutathione solution, which eluted the GST-antigen or the sFv-antigen complex, and these eluates were analyzed by SDS-PAGE. Protein bands were visualized by Coomassie blue staining (FIG. 9) and were also transferred to nitrocellulose membranes in order to detect the sFv molecules by immunoblot blot (FIG. 10).
# [1] = system: model huntingtin polypeptide (HD-25Q-GFP, pHD-104Q-GFP, HD-Q104-myc, GFP-HD-Q104); experiment: Intrabody retargeting of model huntingtin polypeptide in co-transfected COS-7 cells (immunofluorescence); format: cell-based
# Protocol: COS 7 cells were grown on cover glass in 6-well plates (10^5 cells/well) and co-transfected at a ratio of 3:1 (sFv to target) with plasmids containing either N-HD-C4 sFv or a negative control sFv (containing an HA tag and SV40 nuclear localization sequence (NLS)) and plasmids containing GFP-targeted fusion proteins using 5 μl SuperFect transfection reagent (QIAGEN). At 24 hours post-transfection, cells were prepared for immunofluorescence as follows: cells were fixed with 4% paraformaldehyde and permeabilized with 0.2% triton-X100. To prevent non-specific binding of secondary antibodies, cells were blocked with 10% normal goat serum in 3% BSA.
# The assay is designed such that both the target antigen, i.e., the model huntingtin polypeptide, and the intrabody can be visualized. In particular, the huntingtin polypeptide is visualized by detecting fluorescence emitted by the GFP domain of the huntingtin-GFP fusion polypeptide and the intrabodies tested are visualized using a rhodamine-conjugated antibody that can specifically bind to the intrabody.
# The model HD target polypeptide was fused to c-myc (EQKLISEEDL (SEQ ID NO: 45)) epitope tag (HD-Q104-myc). The intrabodies sequences were fused to a HA tag and a SV40 nuclear localization signal (sFv-HA-NLS), so that bound antigens should be retargeted to the cell nuclei. At 48 hours post-transfection, cells were fixed and permeabilized. The HD-Q104-myc proteins were detectable using anti-myc epitope antibodies (i.e., MAb 9E10 IgG), followed by FITC-labeled goat anti-mouse IgG. The sFv-HA-NLS intrabodies were detected by polyclonal rabbit anti-HA IgG followed by rhodamine-conjugated goat anti-rabbit IgG antibodies.
# FIGS. 13A-F show stably transfected COS-7 cells expressing α-Nt-HD-C4 sFv-HA-NLS which were further transfected with plasmids encoding either the model altered huntingtin polypeptide with 104 glutamine repeats (FIGS. 13B, D, F) or the model altered DRPLA polypeptide with 81 glutamine repeats (FIGS. 13A, C, E). Both model altered polypeptides were fused to GFP (GFP-HD-Q104 and GFP-DRPLA-Q81, respectively).
# COS-7 cells = experiment: Aggregation and cell death of model huntingtin-GFP fusion polypeptides expressed in COS-7 cells; format: cell-based, Primate
# Text: In order to determine the effects of intracellular polypeptide aggregation, cells expressing a polypeptide representing normal huntingtin polypeptide as compared to cells expressing a huntingtin polypeptide representing the polypeptide found in patients with Huntington's disease was examined. Primate cells (COS-7) were transfected with plasmid constructs encoding a model huntingtin-GFP fusion polypeptide representing the normal polypeptide or an altered huntingtin polypeptide associated with disease having 47, 72, or 104 glutamine residues. Within 24 h of transfection, a large number of the cells express the huntingtin polypeptide as indicated by the GFP tag fused to each of the test proteins. Observations were recorded at three time points (see Table 4).
# Using fluorescence microscopy, it was observed that cells that express the huntingtin-GFP polypeptide with 104 glutamine residues (FIG. 3D) harbor large, brilliant aggregates. […] In cells expressing a model huntingtin polypeptide with fewer glutamine residues (72Q), extremely bright and more variable aggregates are seen, with slightly less cell death. And in cells expressing a model huntingtin polypeptide with 47 glutamine residues, the fluorescence intensity was less and more diffuse.
molecule,measurement,setting,value
B1,aggregates in brain tissue,cerebellar slices,"smaller, more discrete aggregates"
B2,sFv co-purified with antigens containing the Nt-HD sequence,"GST-HD-25Q, GST-HD-42Q",binding only the HD flanking peptide
B3,sFv co-purified with antigens containing the Nt-HD sequence,"GST-HD-25Q, GST-HD-42Q",binding only the HD flanking peptide
B4,relocation of HD-Q104-myc,"[1]; COS-7, 48 hours post-transfection",able to relocate the model altered huntingtin polypeptide HD-Q104-myc from the cytosol to the nucleus
same,retargeting of HD-25Q-GFP,[1]; COS-7 co-transfection,can retarget the distribution of huntingtin polypeptide to the nucleus
same,colocalization with GFP-HD-Q104 in cell nuclei,[1]; COS-7 stably expressing the intrabody,clearly shows specificity to GFP-HD-Q104
B5,aggregates in brain tissue,cerebellar slices,large aggregates
same,fluorescence pattern / aggregation / cell death,COS-7 cells; 72 h after transfection,substantial death
B6,fluorescence pattern / aggregation / cell death,COS-7 cells; 24 h after transfection,"diffuse, bright"

# Reference: patent publication US20050255113A1, “Methods and compositions for inhibiting polypeptide accumulation associated with neurological disorders” (New York State Department of Health and Abgenix, Inc., priority 1999, published 2005)
